Data from paper PMC12638815, “Targeting ACE2 with a camelid antibody inhibits SARS-CoV-2 binding and has protective effects in vivo” (Nature Communications, 2025).

B1: endogenous ACE2 on Vero E6 cells (receptor, simian (endogenous in Vero E6))
chain: QSTIEEQAKTFLDKFNHEAEDLFYQSSLASWNYNTNITEENVQNMNNAGEKWSAFLKEQSTLAQMYPLQAIQNLTVKLQLQALQQNGSSVLSEDKSKRLNTILNTMSTIYSTGKVCNPNNPQECLLLDPGLNEIMEKSLDYNERLWAWEGWRSEVGKQLRPLYEEYVVLKNEMARANHYKDYGDYWRGDYEVNGVDGYDYNRDQLIEDVERTFEEIKPLYEHLHAYVRAKLMNAYPSYISPTGCLPAHLLGDMWGRFWTNLYSLTVPFGQKPNIDVTDAMVNQAWNAQRIFKEAEKFFVSVGLPNMTQGFWENSMLTDPGNVQKVVCHPTAWDLGKGDFRIIMCTKVTMDDFLTAHHEMGHIQYDMAYAAQPFLLRNGANEGFHEAVGEIMSLSAATPKHLKSIGLLSPDFQEDNETEINFLLKQALTIVGTLPFTYMLEKWRWMVFKGEIPKDQWMKKWWEMKREIVGVVEPVPHDETYCDPASLFHVSNDYSFIRYYTRTLYQFQFQEALCQAAKHEGPLHKCDISNSTEAGQKLLNMLKLGKSEPWTLALENVVGAKNMNVRPLLNYFEPLFTWLKDQNKNSFVGWSTDWSPYADQSIKVRISLKSALGANAYKWNDNEMYLFRSSVAYAMRQYFLENKHQTILFGEEDVRVADLKPRISFNFYVTAPKNVSDIIPRTEVEEAIRFSRSRINDAFQLNDNSLEFLGIQSTLIPPYQSPVTTWLIVFGVVMAVIVAGIVVLIFTGIRDRKKKNQARSEENPYASIDISKGENNPGFQNTDDVQTSF
notes: ACE2 endogenously expressed by the simian kidney cell line Vero E6; also called non-human ACE2 (Vero E6); source: endogenous, Vero E6 cells

Columns and labels:
[1] = target: T1, VHH B07-Fc (VHH B07 in fusion with the human IgG1 Fc segment) (alpaca); assay: flow cytometry on cells; cell lines with exogenous or endogenous ACE2 incubated with 0.1 µg/mL VHH-Fc, 60 min at 4 °C; fluorescent anti-human IgG antibody; conditions: one partner purified
T1 construct: also called dimeric VHH-Fc; source: Expi293 cells, transfected, purified from supernatant (HiTrap protein A, SEC Superdex 75); not shown: Fc (human IgG1; hinge, CH2 and CH3), C-terminal, kept

[2] = target: T2, soluble human ACE2 peptidase domain (residues 19-615), untagged (Homo sapiens, UniProt Q9BYF1); assay: BLI; VHH-His immobilised on Ni-NTA biosensors, soluble hACE2 as analyte; PBS working buffer with 300 mM NaCl, pH 7.2, 30 °C; 1:1 fit, apparent KD; conditions: both partners purified
T2 construct: human ACE2 peptidase domain, residues 19-615, secreted with an IgK signal peptide; Residues of the thrombin site may remain at the C-terminus after cleavage; also called sACE2; soluble hACE2; source: Expi293F cells with kifunensine, purified (Streptactin, SEC, thrombin cleavage, SEC); not shown: His8, C-terminal, cleaved; Strep, C-terminal, cleaved

[3] = target: B1; assay: flow cytometry on cells; cell lines with exogenous or endogenous ACE2 incubated with 10 µg/mL VHH, 60 min at 4 °C; anti-myc and fluorescent anti-mouse antibody; parental cells or a control VHH as negative controls; conditions: one partner purified
[4] = target: T3, hACE2 peptidase domain fused to a human Fc from IgG (Homo sapiens, UniProt Q9BYF1); assay: BLI; hACE2-Fc immobilised on AHC biosensors (1 µg/mL), monomeric VHHs as analytes; PBS working buffer with 300 mM NaCl, pH 7.2, 30 °C; global 1:1 fit, apparent KD; conditions: both partners purified
T3 construct: human angiotensin-converting enzyme 2, peptidase domain; also called hACE2-Fc; sACE2-Fc

T2 sequence (Q9BYF1 19-615): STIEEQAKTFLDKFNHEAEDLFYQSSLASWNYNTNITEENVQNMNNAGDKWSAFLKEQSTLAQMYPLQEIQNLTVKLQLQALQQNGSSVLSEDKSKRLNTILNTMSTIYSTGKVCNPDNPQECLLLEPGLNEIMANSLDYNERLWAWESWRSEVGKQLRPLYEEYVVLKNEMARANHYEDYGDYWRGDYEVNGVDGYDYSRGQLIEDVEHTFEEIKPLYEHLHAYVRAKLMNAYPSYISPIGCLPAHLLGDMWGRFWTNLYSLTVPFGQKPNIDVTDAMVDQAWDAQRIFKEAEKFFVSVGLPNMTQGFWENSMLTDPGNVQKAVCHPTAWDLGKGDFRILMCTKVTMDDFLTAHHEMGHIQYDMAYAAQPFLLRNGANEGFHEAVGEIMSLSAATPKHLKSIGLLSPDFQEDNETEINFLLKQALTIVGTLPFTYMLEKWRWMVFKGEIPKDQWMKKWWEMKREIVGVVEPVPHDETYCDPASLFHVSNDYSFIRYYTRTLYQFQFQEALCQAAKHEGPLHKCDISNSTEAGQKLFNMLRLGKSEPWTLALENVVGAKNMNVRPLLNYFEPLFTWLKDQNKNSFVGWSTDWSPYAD

B1: binds [1].

B2: VHH B10 (VHH)
VHH: QVQLVESGGGLVQAGDSLRLSCAASGRTFSSYAMGWFRQALGKEREFVAVISGSGTSTYYTDSVKGRFTISRDNAKNTVYLQMNSLKPEDTAVYYCARAKGFSTIYNQDEGRYDYWGQGTQVTVSS
notes: alpaca VHH from phage display (gene IGHV3-3); also called anti-hACE2 VHH B10; source: E. coli TG1 periplasm, purified (His pure Cobalt sepharose beads); not shown: c-myc, C-terminal, kept; His, C-terminal, kept
In the case of B2, the Kd [2] is reported as 22 nM, the binding result [3] is reported as “binds” and the Kd [4] is reported as 21 nM.

B3: VHH B07 (VHH)
VHH: EVQLQASGGGLVQAGGSLRLSCAASRSTFSTNTIGWYRQAPGKQRELVASISTSGNTYYPDSVKGRFAISRDNAENTVYLQMNSLKPEDTAVYYCNTPSRRISNFWGQGTQVTVSS
notes: alpaca VHH from phage display (gene IGHV3S53); Expressed from pHEN6 with c-myc and His tags at the C-terminal end; also called anti-hACE2 VHH B07; source: E. coli TG1 periplasm, purified (His pure Cobalt sepharose beads); not shown: c-myc, C-terminal, kept; His, C-terminal, kept
B3 was tested, and the Kd [2] was 1140 nM, the binding result [3] was “binds” and the Kd [4] was 242 nM.

B4: VHH B09 (VHH)
VHH: QVQLVESGGGLVQAGGSLRLSCATSRSTFSSNTIGWYRQAPGKQRELVASISTSGNTYYADSVKGRFAISRDNAENTVYLQMNSLKPEDTAVYYCNTPSRRISNFWGQGTQVTVSS
notes: No structure of B09 was solved; also called anti-hACE2 VHH B09; source: E. coli TG1 periplasm, purified (His pure Cobalt sepharose beads); not shown: c-myc, C-terminal, kept; His, C-terminal, kept
With B4 the Kd [2] was 1960 nM, the binding result [3] was “binds” and the Kd [4] was 214 nM.
